Source: patent US20210290732A1, “GLP-1R and GCGR Agonists, Formulations, and Methods of Use” (Spitfire Pharma LLC, priority 2020, published 2021)
Values joined by “and” are separate entries in the source; they are usually repeats but may differ in a detail not shown here. Equal values may be shown once. “Also recorded” adds a separate entry of the source. Values belong to the molecule of their own block, whether it stands above or below them. Positions of bridges follow the written chain, without caps; N, C: chain ends. Non-standard residues stand in square brackets, D forms with d. No end group written: not given here. GC8 = D-glucoside-derived uronic acid with C8 alkyl chain; Aib = CC(C)(N)C(=O)O

Key:
[1] = in vitro stability in pooled human plasma; details: 1 to 10 μM; GLP-1 7-36 amide at 4 h, analogs at 8 h
human GLP-1R = target: T1, human GLP-1R (Homo sapiens, UniProt P43220); test: cAMP receptor activation assay, human GLP-1R cloned into CHO cells (DiscoverX LeadHunter / cAMP Hunter); type: cell-based
T1 construct: host or cells: CHO-K1

[2] = pharmacokinetics in Gottingen minipigs (cassette sc dosing, 20 nmol/kg); type: in vivo, Gottingen minipig; details: 20 nmol/kg sc
Excerpt: This study uses a cassette style dosing, to minimize large animal usage, but with injection subcutaneously at separate sites to preclude each compound's influencing uptake of another compound. A total of two male Gottingen minipigs were assigned to study. The animals were pair housed in pens on raised floor caging. The animals weighed between approximately 11-15 kg at transfer and approximately 5-8 months of age. The same animals were to be used for multiple phases, following a minimum 1-week washout period. To facilitate dosing and to ensure animal safety during the dosing procedure, animals were sedated with Telazol (IM, 4-6 mg/kg) prior to dosing. Dosing was subcutaneous via bolus injection between the skin and underlying layers of tissue in the ventral region of the animal. A total of […] sites were used for each phase with different compounds dosed at each of the 4 sites. Compounds are formulated in saline containing 0.2% BSA […] at pH 3.5. Each stock solution was diluted with normal saline (pH 7.4) to the required final conc and sterile filtered. Dosing is at 20 nmol/kg. Blood samples were collected pre-dose and at 2, 4, 6, 8, 12, 24, 36, 48, 72 and 96-hours post-dose. At each blood collection time point a 1 mL sample is taken from the jugular vein into K2EDTA tubes on ice before processing to plasma by centrifugation. The plasma samples containing the 4 test compounds were sent to Climax Labs for separation and quantitation by LC-MS/MS as noted below (2.5.3).
Analysis was carried out at Climax Laboratories (San Jose, Calif.) on an API-4000 Mass Spectrometer, ESI positive, MRM scan. Samples were loaded on a Shimadzu HPLC/CTC Autosampler with an ACE C4 column (2.1×50 mm, 5 μm). Elution was by gradient from aqueous 0.5% formic acid, 5 mM NH4OAc to 0.5% formic acid in CH3CN/H2O (9:1). […] After transfer to a 96 well plate, a 40 μL sample was injected and the individual compound peaks were quantitated with standard curves. […] The quantitation limit is 1-2 ng/mL, depending on analog structure.

GCGR = GCGR (Homo sapiens, UniProt P47871); test: cAMP receptor activation assay, human GCGR cloned into CHO cells (DiscoverX LeadHunter / cAMP Hunter); type: cell-based; design: host or cells: CHO-K1; details: cAMP, CHO cells, 0.1% BSA containing buffers; read-out: pEC50 (SE) huGCGR (converted)
[3] = clinical studies, cited from earlier work
[4] = CMC of Polysorbate 20 in F58 buffer pH 7.7 with added ALT-801 by surface tensiometry; type: physicochemical
Excerpt: CMC shifts are simply calculated as CMC in the presence of the ALT-801 less the CMC for the surfactant alone in solution.

[5] = target: human glucagon-like peptide 1 receptor (GLP-1R) (human, UniProt P43220 24-463); test: cell-based or functional assay
[6] = target: human glucagon receptor (GCGR) (human, UniProt P47871 26-477); test: cell-based or functional assay
[7] = target: bovine serum albumin (BSA) (bovine, UniProt P02769 25-607); test: method not stated (data not shown)
plasma proteins of dog [8] = test: ultracentrifugation of spiked plasma (15000 ng/mL), 37 C, 6 h, LC-MS of supernatant
plasma proteins of human [9] = test: as above
[10] = target: plasma proteins of monkey; test: as above
plasma proteins of rat = test: as above
plasma proteins of dog [11] = test: ultracentrifugation of spiked plasma (15000 ng/mL), 37 C, 6 h, LC-MS of supernatant; supernatant value BLQ, extrapolated
plasma proteins of human [12] = test: as above

T1 sequence (P43220 24-463): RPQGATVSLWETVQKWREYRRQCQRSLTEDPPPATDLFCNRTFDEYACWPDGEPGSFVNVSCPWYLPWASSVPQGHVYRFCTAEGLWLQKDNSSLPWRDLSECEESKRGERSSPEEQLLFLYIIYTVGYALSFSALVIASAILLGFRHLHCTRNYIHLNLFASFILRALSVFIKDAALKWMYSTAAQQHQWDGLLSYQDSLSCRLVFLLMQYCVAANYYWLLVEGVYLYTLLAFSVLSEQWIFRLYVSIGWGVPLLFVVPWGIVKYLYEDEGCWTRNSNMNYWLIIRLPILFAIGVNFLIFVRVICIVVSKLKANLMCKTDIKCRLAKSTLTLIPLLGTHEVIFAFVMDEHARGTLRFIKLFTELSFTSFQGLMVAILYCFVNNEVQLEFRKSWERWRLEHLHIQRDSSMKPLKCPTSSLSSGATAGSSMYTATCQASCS
human glucagon-like peptide 1 receptor (GLP-1R), sequence (P43220 24-463): as above
bovine serum albumin (BSA), sequence (P02769 25-607 limits assumed): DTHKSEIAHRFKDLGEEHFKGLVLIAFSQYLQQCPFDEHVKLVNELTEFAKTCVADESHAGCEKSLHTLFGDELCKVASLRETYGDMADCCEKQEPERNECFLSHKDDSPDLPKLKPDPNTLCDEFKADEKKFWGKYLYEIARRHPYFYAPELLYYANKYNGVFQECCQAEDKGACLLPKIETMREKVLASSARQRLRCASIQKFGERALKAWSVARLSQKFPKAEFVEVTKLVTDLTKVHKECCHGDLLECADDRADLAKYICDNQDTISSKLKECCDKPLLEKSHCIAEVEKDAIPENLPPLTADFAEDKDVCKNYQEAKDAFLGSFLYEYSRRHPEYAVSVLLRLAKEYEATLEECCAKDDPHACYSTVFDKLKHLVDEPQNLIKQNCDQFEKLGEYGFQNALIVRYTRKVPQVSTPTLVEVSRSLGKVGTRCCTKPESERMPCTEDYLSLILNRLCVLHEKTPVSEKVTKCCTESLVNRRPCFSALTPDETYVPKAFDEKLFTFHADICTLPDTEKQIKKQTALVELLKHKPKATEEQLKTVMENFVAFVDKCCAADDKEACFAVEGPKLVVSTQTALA

Molecule: CC[C@H](C)[C@H](NC(=O)[C@H](Cc1ccccc1)NC(=O)[C@H](CCC(=O)O)NC(=O)[C@H](CCCCN)NC(=O)[C@H](C)NC(=O)[C@H](C)NC(=O)[C@H](CCC(N)=O)NC(=O)CNC(=O)[C@H](CCC(=O)O)NC(=O)[C@H](CC(C)C)NC(=O)[C@H](Cc1ccc(O)cc1)NC(=O)[C@H](CO)NC(=O)[C@H](CO)NC(=O)[C@@H](NC(=O)[C@H](CC(=O)O)NC(=O)[C@H](CO)NC(=O)[C@@H](NC(=O)[C@H](Cc1ccccc1)NC(=O)[C@@H](NC(=O)CNC(=O)[C@H](CCC(=O)O)NC(=O)[C@H](C)NC(=O)[C@@H](N)Cc1c[nH]cn1)[C@@H](C)O)[C@@H](C)O)C(C)C)C(=O)N[C@@H](C)C(=O)N[C@@H](Cc1c[nH]c2ccccc12)C(=O)N[C@@H](CC(C)C)C(=O)N[C@H](C(=O)N[C@@H](CCCCN)C(=O)NCC(=O)N[C@@H](CCCNC(=N)N)C(N)=O)C(C)C [GLP-1 7-36 amide]
stability in pooled human plasma (compound level remaining) [1]: rapidly destroyed to below quantitation limit; also recorded: rapid destruction

Molecule: CCCCCCCCCCCCCCCC(=O)N[C@@H](CCC(=O)NCCCC[C@H](NC(=O)[C@H](CC(=O)O)NC(=O)[C@H](CO)NC(=O)[C@@H](NC(=O)[C@H](Cc1ccccc1)NC(=O)[C@@H](NC(=O)CNC(=O)[C@H](CCC(N)=O)NC(=O)[C@H](CO)NC(=O)[C@@H](N)Cc1c[nH]cn1)[C@@H](C)O)[C@@H](C)O)C(=O)N[C@@H](CO)C(=O)N[C@@H](CCC(=O)O)C(=O)N[C@@H](Cc1ccc(O)cc1)C(=O)N[C@@H](CC(C)C)C(=O)N[C@@H](CC(=O)O)C(=O)N[C@@H](CO)C(=O)N[C@@H](CCC(=O)O)C(=O)N[C@@H](CCCNC(=N)N)C(=O)N[C@@H](C)C(=O)N[C@@H](CCCNC(=N)N)C(=O)N[C@@H](CC(=O)O)C(=O)N[C@@H](Cc1ccccc1)C(=O)N[C@H](C(=O)N[C@@H](C)C(=O)N[C@@H](Cc1c[nH]c2ccccc12)C(=O)N[C@@H](CC(C)C)C(=O)N[C@@H](CCC(=O)O)C(=O)N[C@@H](C)C(=O)NCC(=O)NCC(=O)O)C(C)C)C(=O)O [cotadutide]
reduction in liver fat content ([3]; 6 weeks): 39%
weight loss over 26 weeks [3]: 5.4%

Molecule: Polysorbate 20
Polysorbate 20 CMC Value, No ALT-801, Average [4]: 0.722 mg/mL
Polysorbate 20 CMC Value, No ALT-801 ([4]; Test # 1 and 2): 0.721 mg/mL and 0.722 mg/mL

More lines, main results first:

Selectivity Ratio GLP-1R vs GCGR (human GLP-1R; SR = GCGR EC50/GLP-1 EC50, 0.1% BSA): 2
EC50 (human GLP-1R; cAMP, CHO cells, 0.1% BSA containing buffers, read-out: pEC50 (SE) hu GLP-1 (converted)): 0.0158 nM
Cmax and PK profiles [2]: optimal
plasma levels compared to liraglutide ([2]; analogue 2 at 4 h, 4 at 2-12 h, 5 at 2, 12, 24 h): Significantly higher plasma levels
EC50 (GCGR): 0.0302 nM
Molecule: CCCCCCCCCCCCCCO[C@@H]1O[C@H](C(=O)NCCCC[C@H](NC(=O)[C@@H](NC(=O)[C@H](Cc2ccccc2)NC(=O)[C@H](CCC(=O)O)NC(=O)[C@@H]2CCCCNC(=O)CC[C@H](NC(=O)[C@H](CC(=O)O)NC(=O)[C@H](CC(C)C)NC(=O)[C@H](Cc3ccc(O)cc3)NC(=O)[C@H](CCCCN)NC(=O)[C@H](CO)NC(=O)[C@H](Cc3ccc(O)cc3)NC(=O)[C@H](CC(=O)O)NC(=O)[C@H](CO)NC(=O)[C@@H](NC(=O)[C@H](Cc3ccccc3)NC(=O)[C@@H](NC(=O)CNC(=O)[C@H](CCC(N)=O)NC(=O)C(C)(C)NC(=O)[C@@H](N)Cc3c[nH]cn3)[C@@H](C)O)[C@@H](C)O)C(=O)N[C@@H](CCC(N)=O)C(=O)N[C@@H](C)C(=O)N[C@@H](C)C(=O)N2)[C@@H](C)CC)C(=O)N[C@@H](Cc2c[nH]c3ccccc23)C(=O)N[C@@H](CC(C)C)C(=O)N[C@@H](CC(C)C)C(=O)N[C@@H](CCC(N)=O)C(=O)N[C@H](C(N)=O)[C@@H](C)O)[C@@H](O)[C@H](O)[C@H]1O [analogue 4]

EC50 (pM) hGLP-1R, cAMP accumulation, 0.1% BSA [5]: 8 pM
EC50 (pM) hGCGR, cAMP accumulation, 0.1% BSA [6]: 20 pM
Molecule: H[Aib]QGTFTSDYSKYLDEQAAKEFIK(GC8)WLLQT-NH2 (lactam 16-20) [Analogue 1 (SEQ ID NO: 12)]

percent bound to BSA [7]: > 99%
B1: EU-A1873 (SEQ ID NO: 1) (peptide)
peptide: HXQGTFTSDYSKYLDEKAAKEFIQWLLQT
modifications: Aib at 2; side chain lactam between Glu16 and Lys20; Lys17 acylated with Z17CO2H / GC18c (1-(17-carboxyheptadecyloxy) beta-D-glucuronyl); C-terminal amide (NH2)
notes: Synthetic 29-residue peptide amide; also called ALT-801; analogue 17
Percentage of ALT-801 Bound (plasma proteins of dog [8]): 99.7% and 99.8%
Percentage of ALT-801 Bound, Mean (plasma proteins of dog [8]): 99.8%
Percentage of ALT-801 Unbound (plasma proteins of dog [8]): 0.265% and 0.223%
Percentage of ALT-801 Unbound, Mean (plasma proteins of dog [8]): 0.205%
Percentage of ALT-801 Bound (plasma proteins of human [9]): 99.7%
Percentage of ALT-801 Bound, Mean (plasma proteins of human [9]): 99.8%
Percentage of ALT-801 Unbound (plasma proteins of human [9]): 0.309%
Percentage of ALT-801 Unbound, Mean (plasma proteins of human [9]): 0.213%
Percentage of ALT-801 Bound [10]: 100%
Percentage of ALT-801 Bound, Mean [10]: 100%
Percentage of ALT-801 Unbound, Mean [10]: 0.0487%
Percentage of ALT-801 Bound (plasma proteins of rat): 99.7% and 99.8%
Percentage of ALT-801 Bound, Mean (plasma proteins of rat): 99.8%
Percentage of ALT-801 Unbound (plasma proteins of rat): 0.334% and 0.204% and 0.184%
Percentage of ALT-801 Unbound, Mean (plasma proteins of rat): 0.241%
Percentage of ALT-801 Bound (plasma proteins of dog [11]): 99.9%
Percentage of ALT-801 Unbound (plasma proteins of dog [11]): 0.126%
Percentage of ALT-801 Bound (plasma proteins of human [12]): 99.9%
Percentage of ALT-801 Unbound (plasma proteins of human [12]): 0.117%
